Drawing on patent CN111690063A (UNIV BEIJING, dated 2020), this text covers Kd for 1 molecule.

Test [1] addresses T1, 粒细胞-巨噬细胞集落刺激因子 (human granulocyte-macrophage colony-stimulating factor, GM-CSF) (human, UniProt P04141 18-144).
T1 construct: also called GM-CSF蛋白
The test can be described thus: Biolayer interferometry type assay: GM-CSF loaded on SA sensor, nanobody at 1000, 500 and 250 nmol, 30℃. (In general: In BLI a coated tip is dipped into the sample, and binding shifts an interference pattern.)

Test [2] has as its target T1, 粒细胞-巨噬细胞集落刺激因子 (human …). The test can be described thus: Not stated at this place (summary of advantages); conflicts with the value in Example 4.

T1 sequence (P04141 18-144 limits assumed): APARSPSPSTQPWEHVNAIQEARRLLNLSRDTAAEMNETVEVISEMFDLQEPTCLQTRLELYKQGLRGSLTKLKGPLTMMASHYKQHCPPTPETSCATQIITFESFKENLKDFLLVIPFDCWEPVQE

B1: 抗GM-CSF纳米抗体G1 (VHH)
VHH: QLQLVESGGGLVQAGGSLRLSCAVSGRPSNVYDMGWFRRVPGKESRLMAYINWSRGSTYYADSVKGRFTISRDNTNNTVYLQMNSLKPEDTAVYYCAARAGPGTPAYNSWGQGTQVTVSS
notes: Alpaca VHH picked from an immune phage library
In general, Kd refers to the equilibrium constant for the complex coming apart. Lower therefore signals a tighter complex. In the case of B1, the Kd with 粒细胞-巨噬细胞集落刺激因子 (human …) [1] turned out to be 93.7 nM; with 粒细胞-巨噬细胞集落刺激因子 (human …) [2] it was 29.5 nM.
